Test results published in patent US20060035823A1 (published 2006).

Assays:
[1] = target: T1, GAL4 DNA-binding domain (BD)/full-length TRAF-3 fusion construct (pGBT9/TRAF-3) (human, UniProt P04386 1-147; Q13114 1-568); test: yeast two-hybrid
T1 construct: Yeast two-hybrid fusion expressed in yeast Y190; BD is put first as in the vector; also called BD/TRAF-3; bait construct

[2] = target: GAL4 BD/TRAF-6 fusion (pGBT9/TRAF-6) (UniProt P04386 1-147; Q9Y4K3 1-522, limits assumed); test: yeast two-hybrid (β-gal, growth without His)
[3] = target: GAL4 BD/TRAF-2 fusion (pGBT9/TRAF-2) (UniProt P04386 1-147; Q12933 1-501, limits assumed); test: yeast two-hybrid (β-gal, growth without His)
[4] = target: GAL4 BD/TRAF-4 fusion (pGBT9/TRAF-4) (UniProt P04386 1-147; Q9BUZ4 1-470, limits assumed); test: yeast two-hybrid (β-gal, growth without His)
[5] = target: GAL4 BD/TRAF-5 fusion (pGBT9/TRAF-5) (UniProt P04386 1-147; O00463 1-557, limits assumed); test: yeast two-hybrid (β-gal, growth without His)
[6] = target: T2, His-tagged TRAF-2 (pEBVHis/TRAF-2) (UniProt Q12933 1-501); test: co-immunoprecipitation from 293T lysates, anti-X-press IP, anti-HA blot
T2 construct: Specificity control, over-expressed in 293T cells
T2 sequence (looked up): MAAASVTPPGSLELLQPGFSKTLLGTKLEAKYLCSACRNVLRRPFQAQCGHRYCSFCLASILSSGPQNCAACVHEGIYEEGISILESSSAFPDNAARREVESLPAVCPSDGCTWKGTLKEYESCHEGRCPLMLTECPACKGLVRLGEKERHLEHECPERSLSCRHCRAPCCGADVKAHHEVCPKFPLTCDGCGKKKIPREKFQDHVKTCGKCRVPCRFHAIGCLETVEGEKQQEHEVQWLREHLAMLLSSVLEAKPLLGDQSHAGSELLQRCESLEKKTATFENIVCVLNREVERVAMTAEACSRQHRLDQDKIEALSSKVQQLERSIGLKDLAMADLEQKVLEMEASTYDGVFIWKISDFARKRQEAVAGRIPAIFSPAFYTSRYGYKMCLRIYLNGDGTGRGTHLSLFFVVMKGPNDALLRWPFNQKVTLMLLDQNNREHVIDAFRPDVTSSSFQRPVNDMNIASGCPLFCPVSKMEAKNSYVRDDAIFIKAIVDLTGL
Procedure: (§1) Membranes were washed with 1× Tris Buffered Saline (TBS) containing 50 mM Tris pH 7.5 (Fisher Scientific) and 150 mM sodium chloride (Fisher Scientific), and then blocked in 1% Blocking Reagent (Roche Molecular Biochemicals) dissolved in 1×TBS.
(§2) Membranes were probed with anti-Xpress, diluted 1:5000 in 0.5% Blocking Reagent, or anti-HA (12CA5) at 0.4 μg/ml (Roche Molecular Biochemicals) in 0.5% Blocking Reagent. Membranes were incubated for 1 hour, then washed twice with TBS containing 0.1% Tween-20 (Sigma Chemical Co.) (1× TBST) and twice with 0.5% Blocking Reagent. Membranes were incubated with anti-mouse IgG-Peroxidase (Roche Molecular Biochemicals) at 1:2500 in 0.5% Blocking Reagent for 60 minutes at room temperature, then washed 4 times in 1× TBST. Proteins were detected with the BM Chemiluminescence Blotting Substrate (POD) (Roche Molecular Biochemicals). Following detection, membranes were stripped of antibodies by incubation with stripping solution containing 62.5 mM Tris pH 6.7, 2% SDS, and 50 mM 2-mercaptoethanol (Fisher Scientific) for 30 minutes at 50° C. The membranes were rinsed with distilled water and then with 1×TBS. The stripped membranes were blocked and reprobed with antibodies as described above.

[7] = target: T3, GAL4 BD fusion of TRAF-3 aa 110-265 (Zn fingers only), in pGBT9 (human, UniProt P04386 1-147; Q13114 110-265); test: yeast two-hybrid
T3 construct: The range is printed without its hyphen

[8] = target: GAL4 BD fusion of TRAF-3 aa 267-343 (coiled-coil domain only), in pGBT9 (human, UniProt P04386 1-147; Q13114 267-343); test: yeast two-hybrid
[9] = target: T4, HA-tagged β-galactosidase (pCGN/LacZ) (UniProt P00722 1-1024 = β-galactosidase); test: co-immunoprecipitation from 293T lysates, anti-HA IP, anti-X-press blot
T4 construct: Specificity control, over-expressed in 293T cells; also called HA-LacZ; RA-LacZ; not shown: N-terminal hemagglutinin (HA) tag of vector pCGN
Procedure: as §1, with “Samples were separated by 10% SDS PAGE and transferred to Immobilon-P PVDF membranes (Millipore Corporation, Bedford, Mass.). Membranes” for “Membranes”
as §2

T4 sequence (P00722 whole entry): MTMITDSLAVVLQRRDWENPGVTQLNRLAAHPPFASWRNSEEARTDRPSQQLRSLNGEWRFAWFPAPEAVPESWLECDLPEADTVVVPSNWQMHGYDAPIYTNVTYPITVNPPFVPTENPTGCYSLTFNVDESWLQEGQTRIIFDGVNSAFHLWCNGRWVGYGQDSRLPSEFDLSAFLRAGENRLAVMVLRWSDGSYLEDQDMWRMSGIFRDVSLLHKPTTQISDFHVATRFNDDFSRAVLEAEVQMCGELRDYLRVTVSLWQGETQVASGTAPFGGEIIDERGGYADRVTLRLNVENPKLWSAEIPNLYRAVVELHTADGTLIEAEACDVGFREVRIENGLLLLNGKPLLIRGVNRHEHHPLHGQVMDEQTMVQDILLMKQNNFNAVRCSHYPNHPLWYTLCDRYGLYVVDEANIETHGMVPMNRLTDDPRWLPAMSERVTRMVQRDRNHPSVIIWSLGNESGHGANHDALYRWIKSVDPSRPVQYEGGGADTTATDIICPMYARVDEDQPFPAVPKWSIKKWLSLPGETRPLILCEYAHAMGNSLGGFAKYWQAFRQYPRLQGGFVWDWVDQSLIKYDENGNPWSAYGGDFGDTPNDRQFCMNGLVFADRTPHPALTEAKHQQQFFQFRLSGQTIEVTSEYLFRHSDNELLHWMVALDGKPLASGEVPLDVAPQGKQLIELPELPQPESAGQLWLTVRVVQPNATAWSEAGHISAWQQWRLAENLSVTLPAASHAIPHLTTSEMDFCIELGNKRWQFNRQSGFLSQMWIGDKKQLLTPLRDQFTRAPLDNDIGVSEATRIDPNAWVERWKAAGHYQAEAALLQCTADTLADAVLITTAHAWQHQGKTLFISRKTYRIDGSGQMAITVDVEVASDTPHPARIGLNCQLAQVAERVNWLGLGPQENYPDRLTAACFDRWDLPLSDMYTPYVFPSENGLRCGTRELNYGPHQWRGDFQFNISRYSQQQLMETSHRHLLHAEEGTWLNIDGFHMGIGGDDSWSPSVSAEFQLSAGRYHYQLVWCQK

B1: GAL4 AD fusion of p62 nucleoporin aa 302-391 (deletion mutant in pGAD424) (other, not shown: large carriers; small tags and cut ends)
chain: IPSNTAAAVTAPPGPGAAAGAAASSAMTYAQLESLINKWSLELEDQERHFLQQATQVNAWDRTLIENGEKITSLHREVEKVKLDQKRLDQ
- binding result [1]: no binding

B2: GAL4 AD fusion of p62 nucleoporin aa 270-522 (pACT/p62(270-522)) (other, UniProt P37198 270-522, looked up, not shown: large carriers)
chain: TTSTAATATATTTSSSSTTGFALNLKPLAPAGIPSNTAAAVTAPPGPGAAAGAAASSAMTYAQLESLINKWSLELEDQERHFLQQATQVNAWDRTLIENGEKITSLHREVEKVKLDQKRLDQELDFILSQQKELEDLLSPLEELVKEQSGTIYLQHADEEREKTYKLAENIDAQLKRMAQDLKDIIEHLNTSGAPADTSDPLQQICKILNAHMDSLQWIDQNSALLQRKVEEVTKVCEGRRKEQERSFRITFD
- binding result [2]: no binding
- binding result [3]: no binding
- binding result [4]: no binding
- binding result [5]: no binding

B3: HA-tagged p62(336-522) (pCGN/p62(336-522)), N-terminal hemagglutinin tag (other)
chain: LINKWSLELEDQERHFLQQATQVNAWDRTLIENGEKITSLHREVEKVKLDQKRLDQELDFILSQQKELEDLLSPLEELVKEQRATIYLQHADEERQKTYKLAENIDAQLKRMAQDLKDIIEHLNTSGAPADTSDPLQQICKILNAHMDSLQWIDQNSALLQRKVEEVTKVCVGRRKEQERSFRITFD
notes: not shown: N-terminal hemagglutinin (HA) tag of vector pCGN
- binding result [6]: no binding

B4: GAL4 AD fusion of p62 nucleoporin aa 336-522 (pACT/p62(336-522)) (other, not shown: large carriers)
chain: LINKWSLELEDQERHFLQQATQVNAWDRTLIENGEKITSLHREVEKVKLDQKRLDQELDFILSQQKELEDLLSPLEELVKEQRATIYLQHADEERQKTYKLAENIDAQLKRMAQDLKDIIEHLNTSGAPADTSDPLQQICKILNAHMDSLQWIDQNSALLQRKVEEVTKVCVGRRKEQERSFRITFD
- binding result [7]: no binding
- binding result [8]: no binding

B5: His-tagged TRAF-3 (pEBVHis/TRAF-3), amino-terminal poly-histidine tag and X-press epitope (other, human, UniProt Q13114 1-568, looked up, not shown: small tags and cut ends)
chain: MESSKKMDSPGALQTNPPLKLHTDRSAGTPVFVPEQGGYKEKFVKTVEDKYKCEKCHLVLCSPKQTECGHRFCESCMAALLSSSSPKCTACQESIVKDKVFKDNCCKREILALQIYCRNESRGCAEQLMLGHLLVHLKNDCHFEELPCVRPDCKEKVLRKDLRDHVEKACKYREATCSHCKSQVPMIALQKHEDTDCPCVVVSCPHKCSVQTLLRSELSAHLSECVNAPSTCSFKRYGCVFQGTNQQIKAHEASSAVQHVNLLKEWSNSLEKKVSLLQNESVEKNKSIQSLHNQICSFEIEIERQKEMLRNNESKILHLQRVIDSQAEKLKELDKEIRPFRQNWEEADSMKSSVESLQNRVTELESVDKSAGQVARNTGLLESQLSRHDQMLSVHDIRLADMDLRFQVLETASYNGVLIWKIRDYKRRKQEAVMGKTLSLYSQPFYTGYFGYKMCARVYLNGDGMGKGTHLSLFFVIMRGEYDALLPWPFKQKVTLMLMDQGSSRRHLGDAFKPDPNSSSFKKPTGEMNIASGCPVFVAQTVLENGTYIKDDTIFIKVIVDTSDLPDP
notes: Over-expressed in 293T cells; tested in cell lysates
- binding result [9]: no binding
